Test: soluble on expression in E. coli; label from the status in PepcDB or PDB records

Soluble on expression in E. coli, soluble:
MAFGVSHPVALDLEATSTDPSEAEVLEVAAVDGEGRVFHRYLATQRPLPPDHEVFQLTGIPYEEYEAKKVAPKEALEELLAFLGGRPLLGHNLLRYDLPLLQRHLEEAGLPRWQGEALDTLRLAHLLFPTPPGGLEGYRLGDLYAFLLGRPLEGAHRALNDAQATLAVFHRLLDRGRRALAQHPGLVRAWRELGLPEGHLFPEDEGLIKDLLAREADVEAFFVEKEGRPFPAPTDLGPDLLPKPRPAQRIKEFVQVAHGVAGQGLVGRERPLHEVLERGLRLAVGEAEEGAVEKEG
MAFKFKTFAAVGALIGSLALAGCGQDEKDPNHIKVGVIVGAEQQVAEVAQKVAKEKYGLDVELVTFNDYVLPNEALSKGDIDANAFQHKPYLDQQIKDRGYKLVSVGKTFVYPIAGYSKKIKSLDELKDGSQVAVPNDPTNLGRSLLLLQKVGLIKLKDGVGLLPTSLDIVENPKNLKIVELEAPQLPRSLDDAQIALAVINTTYASQIGLTPAKDGIFVEDKDSPYVNLIVTREDNKDAENVKKFVQAYQSDEVYEAANKVFNGGAVKGWLEHHHHHH
MAFNDCFSLNYPGNPCPGDLIEVFRPGYQHWALYLGDGYVINIAPVDGIPASFTSAKSVFSSKALVKMQLLKDVVGNDTYRINNKYDETYPPLPVEEIIKRSEFVIGQEVAYNLLVNNCEHFVTLLRYGEGVSEQANRAISTVEFVTAAVGVFSFLGLFPKGQRAKYYLEHHHHHH
MAFVTTAEVCDANQELIRSGQLRALQPIFQIYGRRQIFSGPVVTVKVFEDNGLIRQFIEEKGNGRVLVVDGGGSQRCAILGGNPVVQAQNNGWAGIVVNGCIRDVDEINGCDIGVRALASHPIKASKKGLGEQRVPVNIAGTRICDGEWLYADTDGILVSQIELSV
MAGAAAAVAAGAAAGAAAAAVSVAAPGRASAPPPPPPVYCVCRQPYDVNRFMIECDICKDWFHGSCVGVEEHHAVDIDLYHCPNCAVLHGSSLMKKRRNWHRHDYTEIDDGSKPVQAGTRTFIKELRSRVFPSADEIIIKMHGSQLTQRYLEKHGFDVPIMVPKLDDLGLRLPSPTFSVMDVERYVGGDKVIDVIDVARQADSKMTLHNYVKYFMNPNRPKVLNVISLEFSDTKMSELVEVPDIAKKLSWVENYWPDDSVFPKPFVQKYCLMGVQDSYTDFHIDFGGTSVWYHVLWGEKIFYLIKPTDENLARYESWSSSVTQSEVFFGDKVDKCYKCVVKQGHTLFVPTGWIHAVLTSQDCMAFGGNFLHNLNIGMQLRCYEMEKRLKTPDLFKFPFFEAICWFVAKNLLETLKELREDGFQPQTYLVQGVKALHTALKLWMKKELVSEHAFEIPDNVRPGHLIKELSKVIRAIEEENGKPVKSQGI
MAGDPMKLQKSNHTILLVLEKGEDIVECITTFADDQDLTFTSVSGIGACDDVVLKFFNLTTKQYEEKHITEPLELTSLLGNISRLDNGHFAHLHATFGTQSYETFSGHLAKAIVSATAEIILTVTDLDIQRSFKDAVGLNLLDPQLEHHHHHH
MAGDPMVIIHMIPKKIHYCWFGKGKHSKEMKKCIKSWKKYCPDYEIIEWNESNFDISAHPFVKAAYEAKAWAFVSDYARLKIIYDYGGVYLDTDVELIRNIDFLLQNDAYLGVEAQDWLCNTGLGFGAKKHNSIIAEMLQIYNEIEFDNSKKSTIACPYLNTAVVEKIGYKKQDRIQQLDKITIYPPKYFDPFPSGGSVSILICDETVSIHHYSASWGSWKNKLKRRIARFIGPKLTFKLKKLKIFLITRKLEHHHHHH
MAGDPMYSLFQEGRKMKNTAFLITKNHYPKDYRLKKSPDSDSAMGVAKRILAEVMIFRRVPETISLCGTGCQKCASPHLPKIISAVNKNEPVTFILPAFPGKSPNPEKVLGHLPDHAERLSLNFLGTLCQRIKNFYTPGIKIILCSDGRVFSDVVGMNESDVTAYQLELDRLIKEMSLADLSTFNLDYFYKDLHFVQMREELMKSYGQSLDFLKQKIRNGAKPSASPDEQEANRMYSGITRFLFEDAMHAGQTKSRTAIQKESRFKAYEVIRRSNAWSALIAERFPKAVRLSIHPQTCGSKKLGIRLIGNESWMTPWHGVAVESNKGYVLLRRSEAEALGAKLICSSDGRHSHYQLMAEVSYELAAALEHHHHHH
MAGDPNSMTVSHHNASTARFYALRLLPGQEVFSQLHAFVQQNQLRAAWIAGCTGSLTDVALRYAGQEATTSLTGTFEVISLNGTLELTGEHLHLAVSDPYGVMLGGHMMPGCTVRTTLELVIGELPALTFSRQPCAISGYDELHISSRLEHHHHHH
MAGVKAYELRTKSKEQLASQLVDLKKELAELKVQKLSRPSLPKIKTVRKSIACVLTVINEQQREAVRQLYKGKKYQPKDLRAKKTRALRRALTKFEASQVTEKQRKKQIAFPQRKYAIKA
MAHHHHHHMAAFKPYRFIIFDQQIKNNQFYKSIITQLNLSLLCKEIYLNESFSCYQYEKLFLKKLVYYSFNNLGNNLKAREIKCSGHSSVDTGEHKLQQLINNVNKNENKNININKNINKNINKNVNINNADHNKCSDNSSDYHNFYENECMNNLNLINDLGDRHKNHPLYNVMMKNKKKELTTQSDINKLVSFHIYDNKNEKTFKNILSLNDTYNIDHMNILCLNNYKPIFNMLENYSINNKRISIYYPFYIINDDKNNKPQSNLYTKVADYCYNIVSDILPLNYKNINLSDIIKAIIINTELCQNEGNERMEVLKFMDIMDIIGKN

Soluble on expression in E. coli, not soluble:
MAEPKKLANGKWQLRFKYKDSITNEWKNKMITRSTKKACRDAETEFKSKIMRGENTEAIKLLDFYDIWVDTFKKNKVSAGRMQKIALTRKNLHDFFGDKQLLKGVTKVKYQQWINWLAKPGNINEKGLAVETVSNRHNIVKSMFLEALDMQYIHSNPTRNIKLTGQVPEKKSNKTISIDDLTKFKEALLSRENTTSKYFILVQLYTGARYQEVAALTWDSIDESNEVIKIKNAYKYDAGQYRIGPTKSEAGVRNIDVPSSLFYYLKKYEMEQKKKILRGDLRNPQNFAFVSKKNSWPISNSSVNKYIKETCELANIERISSHSFRHARSDLLILAEADPIYIKTQLGHKEIIQSYEYASATEANRKKNKEKYENKYKDIL
MAFHWQSKVNVQHVGVDDMVLLPKLTEQSIVENLKKRLQANSIFTYIGPVLISVNPFKQMPYFTEKEMLLYQGAAQYENAPHIYALADNMYRNMLIDNESQCVIISGESGAGKTVNAKFIMNYISRISGGGQKVQHIKDVILQSNPLLEAFGNSATVRNWNSSRFGKYVEIVFSRGGEPIGGKLSNFLLEKSRVVHQNEGDRNFHVFYQLCAGADKNLRSTFGIGELQYYNYLNMSGVFKADDTDDGKEFESTLHAMKVVGVNDQDQLEVLRIVATVLHIGNITFTEENNFAAVSGKDYLEYPAFLLGLTSADIEAKLTGRKMESKWGTQKEEIDMKLNVEQASYTRDAWVKAIYARLFDYLVKKVNDAMNITSQSTSDNFSVGILDIYGFEIFNNNGFEQFCINFVNEKLQQIFIELTLKAEQEEYVREGIKWTEIDYFDNKIVCDLIETKRPPGIMSLLDDTCAQNHGQREGVDRQLLTTLSKSFAGHPHFGPGSDSFVIKHYAGDVTYNVDGFCDRNRDVLYPDLILLMQKSSRPFIQALFPENVAASAGKRPTTFSTKIRTQANTLVESLMKCSPHYVRCIKPNETKRPNDWEESRVKHQVEYLGLRENIRVRRAGFAYRRAFDKFAQRYAIVSPQTWPCFQGDQQRACEIICDSVHMEKNQYQMGKTKIFVKNPESLFLLEETRERKFDGYARVIQKAWRQFSARKQHIKQKEQAADLMYGKKERRRYSLNRNFVGDYIGLEHHPTLQSLVGKRQRVLFACTANKYDRKFRVTKLDLLLTVNHLTLIGKEKVKNGPEKGKIVEVIKRQFDLPQIKSIGLSPYQDDFVILYLGNDDYSSLLETPFKTEFCTALSKAYKERTNGTLHLDFRSSHVVSYKKMKFDFSDGKRTVQFGNDGTSSAEKTLKPNGKVLNVSIGTGLPNTTRPSTERPQGGYTPRRDQLRTSTRRTKQNNQSYGQNGQSQAMRAPVPAHGMNNNYNQTPAPVSTNHQYSQEPARIPVMGNVINQLNNMNLSGNGNSPAGRGPPPARGPKPPPPAKPKLNPVVIAVYPYEAQDVDELSFEAGAEIELMNKDASGWWQGKVNNRVGLFPGNYVKE
MAFSMLFTGHAECVKFVKKFNLPLLVTGGGGYTKENVARCWTVETGILLDTELPNEISENDYIKYFAPDFSLKIPGGHIENLNTKSYISSIKVQILENLRYIQHAPSVQMQEVPPDFYIPDFDEDEQNPDVRVDQRSRDKQIQRDDEYFDGDNDNDAS
MAGDPMEAIMKKLIGIATAAVFGLGIFTSSANAETVVTTDVLNVRENPTTESKVVGKLLNGNKIDVQNTENGWSKITLDGKDAFVSAEFTKSIYYVTANVLNVRAEANTNSEVLGKLKKDDVIETTNQVQNEWLQFEYNGKTAYVHVPFLTGTAPVIEKQETTAPAKAAAPAKAQAPVAQAKPAAKPAVKAAETNTPSGGRELTVVATAYTAHPSENGGTYGGRVLTAMGHDLTANPNMKMIAVDPKVIPLGSKVWVEGYGEAIAGDTGGAIKGTRIDILLGSDSAAQKWGRKTVKVKILKLEHHHHHH
MAGDPMSIPFFSFSWAVMSNLTYLQGYPEQLLSQVRTLINEQRLGDVLAKRYPGTHDYATDKALWQYTQDLKNQFLRNAPPINKVMYDNKIHVLKNALGLHTAVSRVQGSKLKAKAEIRVATVFRNAPEPFLRMIVVHELAHLKEKEHNKAFYQLCCHMEPQYHQLEFDTRLWLTQLSLGQDKILEHHHHHH
MAGQSKIIVGGVIGGTSEQEPKGFLDLPVELYQKIIGKLDLHERFRVRKSNQTLRQFIDQMDPAISQIRVSISDSDKCDDWVSRSVRVMAEMLSSSIYPDVKNISTCGLPSSQIAQILPSFQAGKLENLDLYYCGKPTAEDMETIVNSDQWKNAKNISGFRGLSNIRIKDLLHFSLVCVDYATISVETAIEIKDILLTSSNIKHAYFTSKSVLDVNVIRVFDPKAAKVHRKRNLSNLVRNTDFADFTFSSNQKVLRFKKKN
MAHAAAVEENQLQSLKDVAKQAPVHRKLDIQEWKTAEGAKVLFVEAHELPMFDLRLTFAAGSSQDAGTPGLSMLTNAMLNEGVPGKDTTAIAAGFEDLGASFSNGSYRDMAVAGLRSLSEADKRTQALKLFEQVIGQPTFPEDALARIKNQVLAGFEYQKQNPGKLAGLELFKRLYGEHPYAHSSDGDEKSVPTISREQLQAFHKKAYAAGNVVIALVGDLSRQEAEAIAAEVSKALPQGPALAKTVQPETPKPGLTHIDFPSEQTHLMLAQLGIDRQDPDYAALYLGNQILGGGGFGTRLMDQVREKRGLTYGIYSGFTAMQARGPFMINFQTRAELSEGALKLVQDIVRDYLANGPTQKELDDAKRELAGSFPLSTASNADIVGQLGAIGFYGLPLDYLESFLKQVEGLSVEQVRTAMAKHLDADAFVIVSAGPSVPQKLEHHHHHH
MAHHHHHHMAANGCFIAALIARTHDRLPLCSYTDDNYSNANVIRQQEQRIVERMESPAGGTDRAAAKGSYYESFDHKDNVYFAFQDAATDLTLVVAVNKLLLRNSGDINGMNKLACGLLDLIFSEFIQMYTPAEIGAPNVRAYQFIKFDATLRKCVTRIMQQDRTTGDRIV
MAHHHHHHMADSYENDEDVLQMIQQIKKITKESKRKFENEIDYLVEDTKTNLLTHVDDEKNCIKKEAEEKLNSYRENLIKYEKGINEKRRHYLKLKAELATVVNNYKKRMKVGPACTCVERFTCACGEVYTRVEVYTLVKLHTLVKPPTRLLSPQDFNQETENFKQTYEREKKELEDLEDREWSELNTHCVELLSKTKSNICATKNETNKKLRKVLNSIM
